Reference: article PMC7730189

Tests used:
[1] = tested on: RcuCCA (CCA-adding enzyme, tRNA nucleotidyltransferase) (Romanomermis culicivorax); test: EMSA; settings: 6 mM Mg2+; HEPES/KOH pH 7.6, 30 mM KCl, 6 mM MgCl2, 20 C, 10 min; 0.5 pmol tRNA, 0-4 uM enzyme; 5% native PAGE; n = 3
[2] = tested on: Chimera E (HsaCCA with RcuCCA beta-turn region) (Homo sapiens / Romanomermis culicivorax chimera); test: EMSA; settings: 6 mM Mg2+; HEPES/KOH pH 7.6, 30 mM KCl, 6 mM MgCl2, 20 C, 10 min; 0.5 pmol tRNA, 0-4 uM enzyme; 5% native PAGE; n = 3

Substance | Kd [1] [nM] | Kd [2] [nM]
GCGGAUUUAGCUCAGUUGGGAGAGCGCCAGACUGAAGAUCUGGAGGUCCUGUGUUCGAUCCACAGAAUUCGCA [tRNAPhe (lacking CCA)] | 1300 | 
mt-tRNAIle (armless, lacking CCA) | 1400 | 1800
